Numbering of substitutions follows the chain as printed. *1 amine or outer side, *2 acyl side, *3 side chain or, on linkers, in order; H or OH if unused. Where no end group is shown, it is not given here. Side-chain parts run from the residue outwards. [ ]: non-standard residue; d: D form. The star is where a group is joined. Decanoyl(10-(4-HOOC-PhO)) = O=C(O)c1ccc(OCCCCCCCCCC(=O)*)cc1; αMePhe(2-F) = C[C@](N)(Cc1ccccc1F)C(=O)O; γGlu = O=C(O)[C@H](CCC(=O)[*:2])N[*:1]; C14 diacid = O=C(O)CCCCCCCCCCCCC(=O)*; αMeY = C[C@](N)(Cc1ccc(O)cc1)C(=O)O; αMeL = CC(C)C[C@](C)(N)C(=O)O; Orn = NCCC[C@H](N)C(=O)O; AEEA = NCCOCCOCC(=O)O; Aib = CC(C)(N)C(=O)O
T1: human GIP receptor (human) (UniProt P48546)
T1 sequence (looked up): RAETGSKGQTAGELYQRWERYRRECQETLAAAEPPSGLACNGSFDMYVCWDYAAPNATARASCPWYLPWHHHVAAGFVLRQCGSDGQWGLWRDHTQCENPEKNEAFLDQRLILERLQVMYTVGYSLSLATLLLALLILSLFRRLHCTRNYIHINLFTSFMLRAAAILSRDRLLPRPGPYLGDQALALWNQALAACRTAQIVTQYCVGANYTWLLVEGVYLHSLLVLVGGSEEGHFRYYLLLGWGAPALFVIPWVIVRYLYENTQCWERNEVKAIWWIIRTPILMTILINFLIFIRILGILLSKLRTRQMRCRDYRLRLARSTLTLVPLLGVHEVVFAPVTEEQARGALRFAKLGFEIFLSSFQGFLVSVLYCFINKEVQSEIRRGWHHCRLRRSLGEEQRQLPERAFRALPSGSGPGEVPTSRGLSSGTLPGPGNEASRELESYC

T2: human GIP receptor (human, UniProt P48546 22-466)
T2 sequence (looked up): T1 sequence (looked up)

B1: Example 393 (peptide)
peptide: YXEGTXTSDYXIXLDXKAQXKFIXXLIEGGPSSGAPPPS
modifications: Y-Aib-EGT-αMeF(2F)-TSDY-Aib-I-αMeL-LD-Orn-K((2-[2-(2-Amino-ethoxy)-ethoxy]-acetyl)2-(10-(4-carboxyphenoxy)decanoyl))AQ-Aib-K((2-[2-(2-Amino-ethoxy)-ethoxy]-acetyl)2-(10-(4-carboxyphenoxy)decanoyl))FI-(D-Glu)-αMeY-LIEGGPSSGAPPPS-NH2
B2: Example 394 (peptide)
peptide: B1 peptide with Y10V
modifications: Y-Aib-EGT-αMeF(2F)-TSDV-Aib-I-αMeL-LD-Orn-K((2-[2-(2-Amino-ethoxy)-ethoxy]-acetyl)2-(10-(4-carboxyphenoxy)decanoyl))AQ-Aib-K((2-[2-(2-Amino-ethoxy)-ethoxy]-acetyl)2-(10-(4-carboxyphenoxy)decanoyl))FI-(D-Glu)-αMeY-LIEGGPSSGAPPPS-NH2
B3: Example 396 (peptide)
peptide: B1 peptide with K21E, E28K
modifications: Y-Aib-EGT-αMeF(2F)-TSDY-Aib-I-αMeL-LD-Orn-K((2-[2-(2-Amino-ethoxy)-ethoxy]-acetyl)2-(10-(4-carboxyphenoxy)decanoyl))AQ-Aib-EFI-(D-Glu)-αMeY-LIK((2-[2-(2-Amino-ethoxy)-ethoxy]-acetyl)2-(10-(4-carboxyphenoxy)decanoyl))GGPSSGAPPPS-NH2
B4: Example 398 (peptide)
peptide: B1 peptide with Y10V
modifications: Y-Aib-EGT-αMeF(2F)-TSDV-Aib-I-αMeL-LD-Orn-K((2-[2-(2-Amino-ethoxy)-ethoxy]-acetyl)-(γ-Glu)-CO-(CH2)12-CO2H)AQ-Aib-K((2-[2-(2-Amino-ethoxy)-ethoxy]-acetyl)-(γ-Glu)-CO-(CH2)12-CO2H)FI-(D-Glu)-αMeY-LIEGGPSSGAPPPS-NH2
B5: Example 399 (peptide)
peptide: Y[Aib]EGT[αMePhe(2-F)]TSDV[Aib]I[αMeL]LD[Orn]K([AEEA-γGlu-C14 diacid])AQ[Aib]EFI[dE][αMeY]LIK([AEEA-γGlu-C14 diacid])GGPSSGAPPPS-NH2
modifications: N-terminus assumed
SMILES: CC[C@H](C)[C@H](NC(=O)[C@H](CC(C)C)NC(=O)[C@](C)(Cc1ccc(O)cc1)NC(=O)[C@@H](CCC(=O)O)NC(=O)[C@@H](NC(=O)[C@H](Cc1ccccc1)NC(=O)[C@H](CCC(=O)O)NC(=O)C(C)(C)NC(=O)[C@H](CCC(N)=O)NC(=O)[C@H](C)NC(=O)[C@H](CCCCNC(=O)COCCOCCNC(=O)CC[C@H](NC(=O)CCCCCCCCCCCCC(=O)O)C(=O)O)NC(=O)[C@H](CCCN)NC(=O)[C@H](CC(=O)O)NC(=O)[C@H](CC(C)C)NC(=O)[C@](C)(CC(C)C)NC(=O)[C@@H](NC(=O)C(C)(C)NC(=O)[C@@H](NC(=O)[C@H](CC(=O)O)NC(=O)[C@H](CO)NC(=O)[C@@H](NC(=O)[C@](C)(Cc1ccccc1F)NC(=O)[C@@H](NC(=O)CNC(=O)[C@H](CCC(=O)O)NC(=O)C(C)(C)NC(=O)[C@@H](N)Cc1ccc(O)cc1)[C@@H](C)O)[C@@H](C)O)C(C)C)[C@@H](C)CC)[C@@H](C)CC)C(=O)N[C@@H](CCCCNC(=O)COCCOCCNC(=O)CC[C@H](NC(=O)CCCCCCCCCCCCC(=O)O)C(=O)O)C(=O)NCC(=O)NCC(=O)N1CCC[C@H]1C(=O)N[C@@H](CO)C(=O)N[C@@H](CO)C(=O)NCC(=O)N[C@@H](C)C(=O)N1CCC[C@H]1C(=O)N1CCC[C@H]1C(=O)N1CCC[C@H]1C(=O)N[C@@H](CO)C(N)=O
B6: Example 404 (peptide)
peptide: B1 peptide with Y10X
modifications: Y-Aib-EGT-αMeF(2F)-TSD-4Pal-Aib-I-αMeL-LD-Orn-K(PEG3-(γ-Glu)-CO-(CH2)12-CO2H)AQ-Aib-K(PEG3-(γ-Glu)-CO-(CH2)12-CO2H)FI-(D-Glu)-αMeY-LIEGGPSSGAPPPS-NH2
B7: Example 405 (peptide)
peptide: B1 peptide with Y10X
modifications: Y-Aib-EGT-αMeF(2F)-TSD-4Pal-Aib-I-αMeL-LD-Orn-K(PEG4-(γ-Glu)-CO-(CH2)12-CO2H)AQ-Aib-K(PEG4-(γ-Glu)-CO-(CH2)12-CO2H)FI-(D-Glu)-αMeY-LIEGGPSSGAPPPS-NH2
B8: Example 407 (peptide)
peptide: Y[Aib]EGT[αMePhe(2-F)]TSDV[Aib]I[αMeL]LD[Orn]K([AEEA-AEEA-γGlu-C14 diacid])AQ[Aib]K([AEEA-AEEA-γGlu-C14 diacid])FI[dE][αMeY]LI[Orn]GGPSSGAPPPS-NH2
modifications: N-terminus assumed
SMILES: CC[C@H](C)[C@H](NC(=O)[C@H](CC(C)C)NC(=O)[C@](C)(Cc1ccc(O)cc1)NC(=O)[C@@H](CCC(=O)O)NC(=O)[C@@H](NC(=O)[C@H](Cc1ccccc1)NC(=O)[C@H](CCCCNC(=O)COCCOCCNC(=O)COCCOCCNC(=O)CC[C@H](NC(=O)CCCCCCCCCCCCC(=O)O)C(=O)O)NC(=O)C(C)(C)NC(=O)[C@H](CCC(N)=O)NC(=O)[C@H](C)NC(=O)[C@H](CCCCNC(=O)COCCOCCNC(=O)COCCOCCNC(=O)CC[C@H](NC(=O)CCCCCCCCCCCCC(=O)O)C(=O)O)NC(=O)[C@H](CCCN)NC(=O)[C@H](CC(=O)O)NC(=O)[C@H](CC(C)C)NC(=O)[C@](C)(CC(C)C)NC(=O)[C@@H](NC(=O)C(C)(C)NC(=O)[C@@H](NC(=O)[C@H](CC(=O)O)NC(=O)[C@H](CO)NC(=O)[C@@H](NC(=O)[C@](C)(Cc1ccccc1F)NC(=O)[C@@H](NC(=O)CNC(=O)[C@H](CCC(=O)O)NC(=O)C(C)(C)NC(=O)[C@@H](N)Cc1ccc(O)cc1)[C@@H](C)O)[C@@H](C)O)C(C)C)[C@@H](C)CC)[C@@H](C)CC)C(=O)N[C@@H](CCCN)C(=O)NCC(=O)NCC(=O)N1CCC[C@H]1C(=O)N[C@@H](CO)C(=O)N[C@@H](CO)C(=O)NCC(=O)N[C@@H](C)C(=O)N1CCC[C@H]1C(=O)N1CCC[C@H]1C(=O)N1CCC[C@H]1C(=O)N[C@@H](CO)C(N)=O
B9: Example 409 (peptide)
peptide: B1 peptide with E28X
modifications: Y-Aib-EGT-αMeF(2F)-TSDY-Aib-I-αMeL-LD-Orn-K((2-[2-(2-Amino-ethoxy)-ethoxy]-acetyl)2-(γ-Glu)-(10-(4-carboxyphenoxy)decanoyl))AQ-Aib-K((2-[2-(2-Amino-ethoxy)-ethoxy]-acetyl)2-(γ-Glu)-(10-(4-carboxyphenoxy)decanoyl))FI-(D-Glu)-αMeY-LI-Orn-GGPSSGAPPPS-NH2

What was measured:
Assay in all cases: cell-based or functional assay
[1] = molecular target: human glucagon receptor (human) (UniProt P47871)
[2] = molecular target: T1, human GIP receptor (human)
hGLP-1R = hGLP-1R (Homo sapiens, UniProt P43220)
human GLP-1 receptor = human GLP-1 receptor (human, UniProt P43220 24-463)
human GIP receptor = molecular target: T2, human GIP receptor
human glucagon receptor = human glucagon receptor (human, UniProt P47871 26-477)
human glucagon receptor, sequence (P47871 26-477): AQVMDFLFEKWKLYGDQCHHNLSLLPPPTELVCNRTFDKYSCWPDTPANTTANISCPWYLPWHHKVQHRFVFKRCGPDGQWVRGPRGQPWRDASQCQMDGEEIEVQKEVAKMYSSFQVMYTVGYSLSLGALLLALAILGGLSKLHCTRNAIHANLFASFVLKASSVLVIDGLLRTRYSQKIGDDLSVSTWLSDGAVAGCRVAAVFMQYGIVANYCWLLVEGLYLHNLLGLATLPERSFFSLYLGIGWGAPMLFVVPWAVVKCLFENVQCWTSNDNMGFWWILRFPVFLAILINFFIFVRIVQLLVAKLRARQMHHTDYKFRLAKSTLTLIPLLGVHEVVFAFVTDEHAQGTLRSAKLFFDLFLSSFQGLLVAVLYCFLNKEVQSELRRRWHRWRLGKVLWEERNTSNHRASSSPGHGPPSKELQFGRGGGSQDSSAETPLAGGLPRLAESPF

Binder | cAMP EC50 [1] | cAMP EC50 [2] | cAMP Emax [2] | cAMP EC50 (hGLP-1R) | cAMP Emax (hGLP-1R) | cAMP EC50 (1.0% HSA) (human GLP-1 receptor) | cAMP EC50 (1.0% HSA) (human GIP receptor) | cAMP Emax (1.0% HSA) (human GIP receptor) | cAMP EC50 (1.0% HSA) (human glucagon receptor) | cAMP Emax (1.0% HSA) (human GLP-1 receptor)
B1 | > 9950 nM | 0.0115 nM | 94.3% | 0.372 nM | 96.8% | 9.18 nM | 0.547 nM | 66.7% | > 9950 nM | 
B2 | > 9950 nM | 0.0179 nM | 97.7% | 0.223 nM | 101% | 5.83 nM | 1.38 nM | 84.6% | > 9950 nM | 
B3 | > 9950 nM | 0.0113 nM | 96.2% | 0.291 nM | 107% | 6.49 nM | 0.595 nM | 67.1% | > 9950 nM | 94.4%
Y[Aib]EGT[αMePhe(2-F)]TSDV[Aib]I[αMeL]LD[Orn]K([AEEA-AEEA-Decanoyl(10-(4-HOOC-PhO))])AQ[Aib]EFI[dE][αMeY]LIK([AEEA-AEEA-Decanoyl(10-(4-HOOC-PhO))])GGPSSGAPPPS-NH2 [Example 397] | > 9950 nM | 0.0293 nM | 94.6% | 0.166 nM | 95.8% | 7.17 nM | 1.92 nM | 84.5% | > 9950 nM | 
B4 | > 9950 nM | 0.0166 nM | 97.4% | 0.215 nM | 101% | 41.3 nM | 5.4 nM | 91.9% | > 9950 nM | 
B5 | > 9950 nM | 0.0186 nM | 98.4% | 0.259 nM | 91.9% | 43.6 nM | 16.2 nM | 86.8% | > 9950 nM | 89.7%
B6 | > 9950 nM | 0.014 nM | 101% | 0.632 nM | 94.3% | 49.1 nM | 1.74 nM |  | > 9950 nM | 
B7 | > 9950 nM | 0.0209 nM | 100% | 1.26 nM | 93.3% | 37.5 nM | 1.23 nM |  | > 9950 nM | 78.1%
B8 | > 9950 nM | 0.0114 nM | 99.2% | 0.156 nM | 100% | 12.4 nM | 1.87 nM | 95.4% | > 9950 nM | 97.2%
B9 | > 9950 nM | 0.00928 nM | 99.2% | 0.188 nM | 103% | 8.05 nM | 0.537 nM | 84% | > 9950 nM | 97.7%

From patent US20230265151A1, “GIP/GLP1 CO-AGONIST COMPOUNDS” (priority 2020, published 2023)
